Legend:
Nectin-4 [1] = biological target: T1, Nectin-4 (Homo sapiens, UniProt Q96NY8); experiment: [^68Ga]AJ647 binding to SCaBER cells with and without EV; conditions: SCaBER cells (Nectin-4 positive); EV 60 nM for 15 min; P<0.0001
T1 construct: host or cells: HT1376, SCaBER, T24, RT112, UC9, UC14 urothelial carcinoma cells; HT1376 xenografts in NSG mice
T1 sequence (Q96NY8 32-510): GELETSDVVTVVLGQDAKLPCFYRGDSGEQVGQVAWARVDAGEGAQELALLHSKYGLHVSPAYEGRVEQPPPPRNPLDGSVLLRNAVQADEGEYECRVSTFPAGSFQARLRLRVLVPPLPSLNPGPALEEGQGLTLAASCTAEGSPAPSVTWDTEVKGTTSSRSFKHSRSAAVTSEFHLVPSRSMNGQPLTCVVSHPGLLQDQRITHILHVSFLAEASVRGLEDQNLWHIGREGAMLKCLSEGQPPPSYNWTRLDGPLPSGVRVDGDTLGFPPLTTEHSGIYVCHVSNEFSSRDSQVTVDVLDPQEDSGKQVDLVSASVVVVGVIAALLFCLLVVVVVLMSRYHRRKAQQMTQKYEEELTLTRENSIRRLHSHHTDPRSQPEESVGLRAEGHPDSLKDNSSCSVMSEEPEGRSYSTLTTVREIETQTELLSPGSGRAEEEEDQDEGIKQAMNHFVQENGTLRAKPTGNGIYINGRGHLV

Nectin-4 [2] = biological target: T1, Nectin-4; experiment: EV dose-time Nectin-4 pharmacodynamics by [^68Ga]AJ647 PET, HT1376 tumors; type: in vivo, mouse
Description: Mice with tumor volume of ~100–150 mm^3 were injected with ~[…] (7.4 MBq) of [^68Ga]AJ647 in […] of 5% ethanol in saline intravenously and anesthetized under 2.5% isoflurane. PET-CT images were acquired at 60 minutes after radiotracer injection at 5 min/bed in an ARGUS small-animal PET/CT scanner (Sedecal, Madrid, Spain) as described (n=3 unless otherwise noted). PET-MR images were acquired on a simultaneous 7T Bruker PET-MR scanner. Dynamic imaging was conducted to evaluate pharmacokinetics of [^68Ga]AJ647. [^68Ga]AJ647 was injected (with help of catheter) after mice was anesthetized under 2.5% isoflurane on the equipment bed. All PET data were reconstructed using the two-dimensional ordered subsets-expectation maximization algorithm (2D-OSEM) and corrected for radioactive decay and dead time. The SUV values were calculated by finding percent of injected activity (%IA) based on a calibration factor obtained from a known radioactive quantity, then normalizing by mice weight. Amide software was used to derive SUV values by drawing region of interest to closely fit tumors. For change in accessible Nectin-4 levels following EV treatment, ΔSUV was calculated by subtracting baseline (pre-treatment) uptake from post-therapy uptake of [^68Ga]AJ647. Target engagement was quantified by normalizing this change by initial SUV in same subject controls. Image fusion, visualization, and 3D rendering were accomplished using Amira 2020.3.1® (FEI, Hillsboro, OR). The dose-time pharmacodynamics of Nectin-4 following EV treatment was studied at doses 6, 9 and 15 mpk. Experiment involving PET imaging was performed first. Male NSG mice were inoculated with 4 million HT1376 cells at day 0. On day 23 (average tumor volume=150±30 mm^3), mice were randomized to receive either saline, or a single dose of 6, 9 or 15 mpk EV intravenously (n=3 for each dose and n=2 for saline). Mice (n=2) from each dose group and saline were imaged on day 1, 3 and 6 following EV treatment. Once PET imaging results were analyzed, ex vivo distribution experiment was performed with n=16–18 for each dose and n=10 for saline. Treated mice (n=8–9 per dose per time-point) along with saline controls (n=5 per time-point) were sacrificed on day 1 and day 6. Biodistribution studies were performed at 60-minute after [68Ga]AJ647 injection as described above.

Nectin-4 [3] = biological target: T1, Nectin-4; experiment: In vivo Nectin-4 engagement by EV, SCaBER tumors (ex vivo biodistribution of [^68Ga]AJ647); set-up: species or system mouse; conditions: NSG mice, single i.v. dose of EV (15 mg/kg in text, 20 mpk in legend/methods) 24 hours before tracer, ex vivo biodistribution 60 min, n=5, P < 0.001
Description: To validate imaging studies, ex vivo biodistribution studies were conducted in mice with tumors of size 100–200 mm^3. Mice received ~50 μCi (1.85 MBq) of [^68Ga]AJ647 in […] of 5% ethanol in saline intravenously and mice were sacrificed at 5–180 min after [^68Ga]AJ647 injection for pharmacokinetic evaluation (n=4 per timepoint). In all other studies, 60 min time-point was chosen. Selected tissues (Blood, Skin, Muscle, Bone, Salivary glands, Tumor, Lungs, Heart, Liver, Pancreas, Spleen, Kidneys, Bladder, Testicles) were collected, weighed, counted, and their %IA/g values calculated as described previously (PMID: 37793856). For EV pharmacodynamics studies, fewer organs were harvested to accommodate more number of mice.
Male NSG mice were implanted subcutaneously with HT1376 and SCaBER cells (4 million each) on the right and left rostral end, respectively. On day 25 after cell inoculation (average tumor volume=200±35 mm^3), mice were randomized and treated with a single dose of either saline or 20 mpk EV ADC injected intravenously (volume not exceeding 300 μL) or with 200 μL saline (n=7/group). 24 hours following the EV dose, [^68Ga]AJ647 PET scans (n=2/group) were acquired and ex vivo biodistribution (n=5/group) was performed using the protocols mentioned above.

enfortumab vedotin [EV]
effect of EV on [^68Ga]AJ647 binding (Nectin-4 [1]): significantly reduced
Nectin-4 engagement by EV ([^68Ga]AJ647 PET tumor uptake) (Nectin-4 [2]; day 1, all EV doses (6, 9, 15 mg/kg single i.v.)): full occupancy
Nectin-4 engagement by EV ([^68Ga]AJ647 PET tumor uptake) (Nectin-4 [2]; day 3, 6 mg/kg): increase in [^68Ga]AJ647 uptake
Nectin-4 engagement by EV ([^68Ga]AJ647 PET tumor uptake) (Nectin-4 [2]; day 3, 9 and 15 mg/kg): sustained target engagement
Nectin-4 engagement by EV ([^68Ga]AJ647 PET tumor uptake) (Nectin-4 [2]; day 6, 6 mg/kg): significant increase in [^68Ga]AJ647 uptake
Nectin-4 engagement by EV ([^68Ga]AJ647 PET tumor uptake) (Nectin-4 [2]; day 6, 9 mg/kg): partial engagement
Nectin-4 engagement by EV ([^68Ga]AJ647 PET tumor uptake) (Nectin-4 [2]; day 6, 15 mg/kg): persistent high-level engagement
reduction in [^68Ga]AJ647 uptake in EV-treated tumors compared to controls (Nectin-4 [3]): 72%

— article doi:10.1101/2024.12.25.630315 (bioRxiv, 2024)
